Measurements: patent publication US20220073611A1

Biological target: NR1 ATD fusion protein on 293T-ATD cells (human)
Assay: flow cytometry on 293T-ATD cells, co-stained with commercial anti-NR1 mAb

Chain of NR1 ATD fusion protein on 293T-ATD cells (human) (chain, as listed by the source limits assumed): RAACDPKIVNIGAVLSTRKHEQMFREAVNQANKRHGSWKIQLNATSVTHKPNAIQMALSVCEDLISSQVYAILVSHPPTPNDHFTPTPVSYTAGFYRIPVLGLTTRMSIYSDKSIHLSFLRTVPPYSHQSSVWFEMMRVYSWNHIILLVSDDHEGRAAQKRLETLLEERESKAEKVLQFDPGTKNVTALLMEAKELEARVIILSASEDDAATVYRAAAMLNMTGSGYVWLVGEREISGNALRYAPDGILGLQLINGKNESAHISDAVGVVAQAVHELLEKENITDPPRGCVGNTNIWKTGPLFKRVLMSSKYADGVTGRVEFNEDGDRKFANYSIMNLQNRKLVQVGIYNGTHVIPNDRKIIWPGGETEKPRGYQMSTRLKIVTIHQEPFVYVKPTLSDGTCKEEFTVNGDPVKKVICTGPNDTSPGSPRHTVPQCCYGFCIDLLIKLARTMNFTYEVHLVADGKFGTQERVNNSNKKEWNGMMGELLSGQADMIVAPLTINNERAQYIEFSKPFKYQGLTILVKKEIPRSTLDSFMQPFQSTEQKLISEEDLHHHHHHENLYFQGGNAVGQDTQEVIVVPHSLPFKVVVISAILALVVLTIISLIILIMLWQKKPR

## 6A isotype control human mAb (antibody)
  Percent GluN1 positive 293T-ATD cells bound: 18%
  double positive cells: 12.4%
